Laboratory results: PMC8571082 (2021)

What was measured:
[1] = molecular target: T1, factor inhibiting HIF-1 (FIH-1), full-length (human, UniProt Q9NWT6 1-349); assay: ITC; +αKG, -EDTA
[2] = molecular target: T1, factor inhibiting HIF-1 (FIH-1), …; assay: ITC; -αKG, -EDTA
[3] = molecular target: T1, factor inhibiting HIF-1 (FIH-1), …; assay: ITC; +αKG, +EDTA
[4] = molecular target: T1, factor inhibiting HIF-1 (FIH-1), …; assay: ITC; -αKG, +EDTA

T1 sequence (Q9NWT6 whole entry): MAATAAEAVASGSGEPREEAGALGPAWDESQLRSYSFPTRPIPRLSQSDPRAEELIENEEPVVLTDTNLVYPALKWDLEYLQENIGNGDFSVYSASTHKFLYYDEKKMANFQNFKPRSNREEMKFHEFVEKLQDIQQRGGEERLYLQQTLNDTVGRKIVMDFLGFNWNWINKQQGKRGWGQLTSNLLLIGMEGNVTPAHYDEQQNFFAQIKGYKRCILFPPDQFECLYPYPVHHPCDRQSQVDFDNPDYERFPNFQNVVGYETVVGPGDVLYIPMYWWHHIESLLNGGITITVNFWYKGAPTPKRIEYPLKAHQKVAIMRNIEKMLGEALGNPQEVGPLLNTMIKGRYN

Kd [1]: 1000 nM
Kd [2]: 3400 nM
Kd [3]: 2200 nM
Kd [4]: 8100 nM
B1: Mint3NT, N-terminal fragment (1–214) of Mint3 (domain or fragment)
chain: MDFPTISRSPSGPPAMDLEGPRDILVPSEDLTPDSQWDPMPGGPGSLSRMELDESSLQELVQQFEALPGDLVGPSPGGAPCPLHIATGHGLASQEIADAHGLLSAEAGRDDLLGLLHCEECPPSQTGPEEPLEPAPRLLQPPEDPDEDSDSPEWVEGASAEQEGSRSSSSSPEPWLETVPLVTPEEPPAGAQSPETLASYPAPQEVPGPCDHED
